Patent publication US6379959B1, “Metalocarboxypeptidase inhibitors and derived molecules used as antitumor agents” (Universitat Autonoma de Barcelona, priority 1996, dated 2002)
Positions of bridges follow the written chain, without caps; N, C: chain ends. No end group written: not given here.

What was measured:
[1] = system: hamster insulinome cell line HIT; test: Proliferation test by recount of the cells number (hemocytometer), HIT; assay type: cell-based; conditions: Postadhesion, 4 days
Method: In this assay and with the aim of determining whether the presence in the culture medium produces some effect on the growth in vitro of the cell lines, the final number of the cells when the control reaches monolayer is determined, in the presence and in the absence of the inhibitor. The calculation is made by direct recount of the number of cells using trypsinization and subsequent recount in a hemocytometer. The detailed method is as follows: 1. In each of the three culture flasks of 25 cm^2, 5×10^5 cells are seed and a total volume of the culture medium is added (DMEM with a 10% of fetal bovine serum or synthetic serum, according to the test) of 5 mL: 2. The cells are maintained in an incubator at 37° C., 87% of relative humidity and 10% of CO2. […] The total number of cells of the W zone of the hemocytometer is counted, differentiating between the live and the dead ones. Based on this recount, the total number of cells that was in the initial suspension (which will be the total number of cells that was in the culture) is calculated by multiplying the number obtained by 2×10^4. The viability (in %) is calculated by dividing the number of live cells by the total number of counted cells and multiplying it by 100. The effect produced by the presence of PCI in the medium is expressed as % of cell growth inhibition, which is calculated according to the formula [formula] […]

[2] = system: human pancreatic adenocarcinoma cell line Capan-1; test: Flow cytometry analysis of cell cycle phases; assay type: cell-based; conditions: 50 µg/mL of PCI
[3] = target: T1, EGF receptors of the Capan-1 cell line (Homo sapiens, UniProt P00533); test: Competitive binding with 125I-EGF to EGF receptors
T1 construct: endogenous in cells; host or cells: Capan-1 (human pancreatic adenocarcinoma)
Method: The detailed procedure that was employed is as follows:
1. 1.25×10^5 cells were seed per well in plates of 24 wells which were kept in culture for 48 h in DMEM FBS 10%. Triplicates were put for each concentration of competitor to be tested.
2. 24 h before the test, the full medium of the wells was replaced by 2 mL, per well, of DMEM without fetal serum.
3. The next day, the cells were washed, three times, with cold binding medium.
4. The cells were incubated with 70 μL of binding medium to which the concentrations of the competitor to be tested had been added. […] Afterwards, 40,000 cpm (350 pM) of ^125I-EFG were added. The incubation was done at 4° C. for 5 h.
5. The cells were washed quickly three times with 500 μL of the cold washing solution.
6. They were solubilized through incubation for 30 min at room temperature with the permeabilization solution.
7. The radioactivity in the suspension was determined with a gamma counter. To determine the unspecific binding, the value of unspecific binding was deducted from the total bounded radioactivity.
From the test, the bounded radioactivity for each one of the tested concentrations of unlabeled competitor was determined. […] To determine the percentage, the following formula was applied: [formula]
where B is the amount of specific binding in presence of a specific competitor concentration.
With the aim of determining the kind of binding which is taking place, a pseudo-Hill or Logit-log representation (Pratt, W. B. and Taylor, P. “Principles of Drug Action. The Basis of Pharmacology”. Ed. Churchill Livingstone, N.Y., 1990) was carried out. The data of specific binding percentage are used to calculate the log(P/[100-P]), which is represented versus the logarithm of the competitor concentration.
The resulting slope of the straight line is called pseudo-Hill coefficient.
The fitting has been made using the programme Graphpad Inplot4. A non-linear fitting for competition for two binding sites is made. The logarithm of the competitor concentration has been represented versus the values of Logit-log (FIG. 25).
From the previous fitting, the value of IC50, that is to say, the competitor concentration which inhibits 50% of the specific binding for the two types of binding was determined. Also, the percentage of the two types of binding sites was determined.

[4] = [PCI] nM 1, 350 pM 125I-EGF, 5 h, 4° C.

## PCI: potato carboxypeptidase inhibitor, isoform IIa, obtained by recombinant DNA techniques in E. coli (SEQ ID NO.2) (EQHADPICNKPCKTHDDCSGAWFCQACWNSARTCGPYVG; disulfide 12-27, 18-34, 8-24)
[1]; 10 mg PCI/mL
  Percentage of Growth Inhibition: 43.0 ± 22.8%
[1]; 50 mg PCI/mL
  Percentage of Growth Inhibition: 60.1 ± 28.3%
[2]; 24 h (control 6.4)
  % G2 M: 4.7%
[2]; 24 h (control 14.3)
  % S: 20.4%
[2]; 24 h (control 79.2)
  % G1: 74.9%
[2]; 48 h
  % G1: 85.3%
  % G2 M: 3.7%
  % S: 11%
[2]; 72 h
  % G1: 85.1%
  % G2 M: 4%
  % S: 10.9%
[2]; 96 h
  % G1: 88.5%
  % G2 M: 3.9%
  % S: 7.6%
[3]; High affinity binding site
  % Receptors: 99.7%
[3]; Log [PCI] M −4.33
  Log (P/[100-P]): −0.272
[3]; Log [PCI] M −4.93
  Log (P/[100-P]): −0.2246
[3]; Log [PCI] M −5.83
  Log (P/[100-P]): −0.1873
[3]; Log [PCI] M −6.63
  Log (P/[100-P]): 0,605
[3]; Log [PCI] M −7.63
  Log (P/[100-P]): 0.713
[3]; Log [PCI] M −8.63
  Log (P/[100-P]): 1.205
[3]; Log [PCI] M −9
  Log (P/[100-P]): 1.99
[3]; Low affinity binding site
  % Receptors: 0.3%
[3]; [4]
  Percentage of specific binding: 99%
  Specific binding (cpm): 1597 cpm
[3]; [PCI] nM 2.32
  Percentage of specific binding: 94.14%
  Specific binding (cpm): 1503.5 cpm
[3]; [PCI] nM 23.2
  Percentage of specific binding: 83.78%
  Specific binding (cpm): 1307 cpm
[3]; [PCI] nM 232.8
  Percentage of specific binding: 80.13%
  Specific binding (cpm): 1250 cpm
[3]; [PCI] nM 2328.2
  Percentage of specific binding: 39.38%
  Specific binding (cpm): 621.5 cpm
[3]; [PCI] nM 11641
  Percentage of specific binding: 37.35%
  Specific binding (cpm): 582.6 cpm
[3]; [PCI] nM 46566
  Percentage of specific binding: 34.83%
  Specific binding (cpm): 543.33 cpm
[3]; high affinity receptor
  binding capacity to the receptor of high affinity, times inferior to that of the EGF: 6 times
